Measured values reported in ChEMBL document CHEMBL1212771, “BEL-2, an extended-spectrum beta-lactamase with increased activity toward expanded-spectrum cephalosporins in Pseudomonas aeruginosa” (Antimicrob Agents Chemother, 2010).
Positions count from the first letter of the chain named. ≈ marks a conversion by molar mass, not a printed value.

Key:
Escherichia coli [1] = test: Antimicrobial activity against Escherichia coli TOP10 by solid agar dilution method; type: functional
Pseudomonas aeruginosa [2] = test: Antimicrobial activity against Pseudomonas aeruginosa 531 expressing beta-lactamase BEL-2 by solid agar dilution method; type: functional
Escherichia coli [3] = test: Antimicrobial activity against Escherichia coli TOP10 expressing recombinant beta-lactamase BEL-1 by solid agar dilution method; type: functional
Pseudomonas aeruginosa [4] = test: Antimicrobial activity against Pseudomonas aeruginosa 51170 expressing beta-lactamase BEL-1 by solid agar dilution method; type: functional
Escherichia coli [5] = test: Antimicrobial activity against Escherichia coli TOP10 expressing recombinant beta-lactamase BEL-2 by solid agar dilution method; type: functional
Pseudomonas aeruginosa [6] = test: Ratio of Km for Pseudomonas aeruginosa 51170 beta-lactamase BEL-1 to Km for Pseudomonas aeruginosa 531 beta-lactamase BEL-2
[7] = substrate: CO/N=C(\C(=O)N[C@@H]1C(=O)N2C(C(=O)O)=C(COC(C)=O)CS[C@H]12)c1csc(N)n1; test: (§1) Ratio of Kcat to Km for Pseudomonas aeruginosa 531 beta-lactamase BEL-2
[8] = substrate: CC1(C)S[C@@H]2[C@H](NC(=O)Cc3ccccc3)C(=O)N2[C@H]1C(=O)O; test: as §1
[9] = substrate: CO/N=C(\C(=O)N[C@@H]1C(=O)N2C(C(=O)O)=C(COC(N)=O)CS[C@H]12)c1ccco1; test: as §1
[10] = substrate: CC(C)(O/N=C(\C(=O)N[C@@H]1C(=O)N2C(C(=O)[O-])=C(C[n+]3ccccc3)CS[C@H]12)c1csc(N)n1)C(=O)O; test: as §1
[11] = substrate: CCN1CCN(C(=O)N[C@@H](C(=O)N[C@@H]2C(=O)N3[C@@H]2SC(C)(C)[C@@H]3C(=O)O)c2ccccc2)C(=O)C1=O; test: as §1
[12] = substrate: CO/N=C(\C(=O)N[C@@H]1C(=O)N2C(C(=O)[O-])=C(C[N+]3(C)CCCC3)CS[C@H]12)c1csc(N)n1; test: as §1
[13] = substrate: C[C@H]1[C@H](NC(=O)/C(=N\OC(C)(C)C(=O)O)c2csc(N)n2)C(=O)N1S(=O)(=O)O; test: as §1
[14] = substrate: O=C(Cc1cccs1)N[C@@H]1C(=O)N2C(C(=O)[O-])=C(C[n+]3ccccc3)CS[C@H]12; test: as §1
[15] = substrate: CC(=O)OCC1=C(C(=O)O)N2C(=O)[C@@H](NC(=O)Cc3cccs3)[C@H]2SC1; test: as §1
[16] = substrate: CO/N=C(\C(=O)N[C@@H]1C(=O)N2C(C(=O)O)=C(COC(C)=O)CS[C@H]12)c1csc(N)n1; test: (§2) Activity at Pseudomonas aeruginosa 531 beta-lactamase BEL-2
[17] = substrate: C[C@@H](O)[C@H]1C(=O)N2C(C(=O)O)=C(SCCNC=N)C[C@H]12; test: as §2
[18] = substrate: CC1(C)S[C@@H]2[C@H](NC(=O)Cc3ccccc3)C(=O)N2[C@H]1C(=O)O; test: as §2
[19] = substrate: CO/N=C(\C(=O)N[C@@H]1C(=O)N2C(C(=O)O)=C(COC(N)=O)CS[C@H]12)c1ccco1; test: as §2
[20] = substrate: CO[C@@]1(NC(=O)Cc2cccs2)C(=O)N2C(C(=O)O)=C(COC(N)=O)CS[C@@H]21; test: as §2
[21] = substrate: CC(C)(O/N=C(\C(=O)N[C@@H]1C(=O)N2C(C(=O)[O-])=C(C[n+]3ccccc3)CS[C@H]12)c1csc(N)n1)C(=O)O; test: as §2
[22] = substrate: CCN1CCN(C(=O)N[C@@H](C(=O)N[C@@H]2C(=O)N3[C@@H]2SC(C)(C)[C@@H]3C(=O)O)c2ccccc2)C(=O)C1=O; test: as §2
[23] = substrate: CO/N=C(\C(=O)N[C@@H]1C(=O)N2C(C(=O)[O-])=C(C[N+]3(C)CCCC3)CS[C@H]12)c1csc(N)n1; test: as §2
[24] = substrate: C[C@H]1[C@H](NC(=O)/C(=N\OC(C)(C)C(=O)O)c2csc(N)n2)C(=O)N1S(=O)(=O)O; test: as §2
[25] = substrate: O=C(Cc1cccs1)N[C@@H]1C(=O)N2C(C(=O)[O-])=C(C[n+]3ccccc3)CS[C@H]12; test: as §2
[26] = substrate: CC(=O)OCC1=C(C(=O)O)N2C(=O)[C@@H](NC(=O)Cc3cccs3)[C@H]2SC1; test: as §2
[27] = substrate: CO/N=C(\C(=O)N[C@@H]1C(=O)N2C(C(=O)O)=C(COC(C)=O)CS[C@H]12)c1csc(N)n1; test: (§3) Activity at Pseudomonas aeruginosa 51170 beta-lactamase BEL-1
[28] = substrate: C[C@@H](O)[C@H]1C(=O)N2C(C(=O)O)=C(SCCNC=N)C[C@H]12; test: as §3
[29] = substrate: CC1(C)S[C@@H]2[C@H](NC(=O)Cc3ccccc3)C(=O)N2[C@H]1C(=O)O; test: as §3
[30] = substrate: CO/N=C(\C(=O)N[C@@H]1C(=O)N2C(C(=O)O)=C(COC(N)=O)CS[C@H]12)c1ccco1; test: as §3
[31] = substrate: CO[C@@]1(NC(=O)Cc2cccs2)C(=O)N2C(C(=O)O)=C(COC(N)=O)CS[C@@H]21; test: as §3
[32] = substrate: CC(C)(O/N=C(\C(=O)N[C@@H]1C(=O)N2C(C(=O)[O-])=C(C[n+]3ccccc3)CS[C@H]12)c1csc(N)n1)C(=O)O; test: as §3
[33] = substrate: CCN1CCN(C(=O)N[C@@H](C(=O)N[C@@H]2C(=O)N3[C@@H]2SC(C)(C)[C@@H]3C(=O)O)c2ccccc2)C(=O)C1=O; test: as §3
[34] = substrate: CO/N=C(\C(=O)N[C@@H]1C(=O)N2C(C(=O)[O-])=C(C[N+]3(C)CCCC3)CS[C@H]12)c1csc(N)n1; test: as §3
[35] = substrate: C[C@H]1[C@H](NC(=O)/C(=N\OC(C)(C)C(=O)O)c2csc(N)n2)C(=O)N1S(=O)(=O)O; test: as §3
[36] = substrate: O=C(Cc1cccs1)N[C@@H]1C(=O)N2C(C(=O)[O-])=C(C[n+]3ccccc3)CS[C@H]12; test: as §3
[37] = substrate: CC(=O)OCC1=C(C(=O)O)N2C(=O)[C@@H](NC(=O)Cc3cccs3)[C@H]2SC1; test: as §3
[38] = substrate: CO/N=C(\C(=O)N[C@@H]1C(=O)N2C(C(=O)O)=C(COC(C)=O)CS[C@H]12)c1csc(N)n1; test: (§4) Ratio of Kcat to Km for Pseudomonas aeruginosa 51170 beta-lactamase BEL-1
[39] = substrate: CC1(C)S[C@@H]2[C@H](NC(=O)Cc3ccccc3)C(=O)N2[C@H]1C(=O)O; test: as §4
[40] = substrate: CO/N=C(\C(=O)N[C@@H]1C(=O)N2C(C(=O)O)=C(COC(N)=O)CS[C@H]12)c1ccco1; test: as §4
[41] = substrate: CCN1CCN(C(=O)N[C@@H](C(=O)N[C@@H]2C(=O)N3[C@@H]2SC(C)(C)[C@@H]3C(=O)O)c2ccccc2)C(=O)C1=O; test: as §4
[42] = substrate: CO/N=C(\C(=O)N[C@@H]1C(=O)N2C(C(=O)[O-])=C(C[N+]3(C)CCCC3)CS[C@H]12)c1csc(N)n1; test: as §4
[43] = substrate: C[C@H]1[C@H](NC(=O)/C(=N\OC(C)(C)C(=O)O)c2csc(N)n2)C(=O)N1S(=O)(=O)O; test: as §4
[44] = substrate: O=C(Cc1cccs1)N[C@@H]1C(=O)N2C(C(=O)[O-])=C(C[n+]3ccccc3)CS[C@H]12; test: as §4
[45] = substrate: CC(=O)OCC1=C(C(=O)O)N2C(=O)[C@@H](NC(=O)Cc3cccs3)[C@H]2SC1; test: as §4

CO[C@@]1(NC(=O)Cc2cccs2)C(=O)N2C(C(=O)O)=C(COC(N)=O)CS[C@@H]21 [CEFOXITIN]
MIC (Escherichia coli [1]): 2 µg/mL (≈ 4.68 µM)
MIC (Pseudomonas aeruginosa [2]): 512 µg/mL (≈ 1200 µM)
MIC (Escherichia coli [3]): 2 µg/mL
MIC (Pseudomonas aeruginosa [4]): 512 µg/mL (≈ 1200 µM)
MIC (Escherichia coli [5]): 2 µg/mL

CO/N=C(\C(=O)N[C@@H]1C(=O)N2C(C(=O)[O-])=C(C[N+]3(C)CCCC3)CS[C@H]12)c1csc(N)n1
MIC (Pseudomonas aeruginosa [2]): 16 µg/mL (≈ 33.3 µM)
MIC (Escherichia coli [3]): 0.25 µg/mL
MIC (Pseudomonas aeruginosa [4]): 4 µg/mL (≈ 8.32 µM)
MIC (Escherichia coli [5]): 1 µg/mL

CCN1CCN(C(=O)N[C@@H](C(=O)N[C@@H]2C(=O)N3[C@@H]2SC(C)(C)[C@@H]3C(=O)O)c2ccccc2)C(=O)C1=O [PIPERACILLIN]
MIC (Escherichia coli [1]): 1 µg/mL (≈ 1.93 µM)
MIC (Pseudomonas aeruginosa [2]): 16 µg/mL (≈ 30.9 µM)
MIC (Escherichia coli [3]): 128 µg/mL
MIC (Pseudomonas aeruginosa [4]): 16 µg/mL (≈ 30.9 µM)
MIC (Escherichia coli [5]): 32 µg/mL

CO/N=C(\C(=O)N[C@@H]1C(=O)N2C(C(=O)O)=C(COC(N)=O)CS[C@H]12)c1ccco1 [CEFUROXIME]
MIC (Escherichia coli [1]): 2 µg/mL (≈ 4.71 µM)
MIC (Pseudomonas aeruginosa [2]): > 512 µg/mL
MIC (Escherichia coli [3]): 128 µg/mL
Ratio (Pseudomonas aeruginosa [6]): 300
MIC (Pseudomonas aeruginosa [4]): > 512 µg/mL
MIC (Escherichia coli [5]): 32 µg/mL

C[C@H]1[C@H](NC(=O)/C(=N\OC(C)(C)C(=O)O)c2csc(N)n2)C(=O)N1S(=O)(=O)O [AZTREONAM]
MIC (Pseudomonas aeruginosa [2]): 64 µg/mL (≈ 147 µM)
MIC (Escherichia coli [3]): 16 µg/mL
MIC (Pseudomonas aeruginosa [4]): 16 µg/mL (≈ 36.7 µM)
MIC (Escherichia coli [5]): 16 µg/mL

B1: Beta-lactamase (Pseudomonas aeruginosa), D2SSQ3 (protein)
chain: MKLLLYPLLLFLVIPAFAQADFEHAISDLEAHNQAKIGVALVSENGNLIQGYRANERFAMCSTFKLPLAALVLSRIDAGEENPERKLHYDSAFLEEYAPAAKRYVATGYMTVTEAIQSALQLSDNAAANLLLKEVGGPPLLTKYFRSLGDKVSRFDRIEPTLNTNTPGDERDTTTPMSMAQTVSKLIFGDTLTYKSKGQLRRLLIGNQTGDKTIRAGLPDSWVTGDKTGSCANGGRNDVAFFITTAGKKYVLSVYTNAPELQGEERALLIASVAKLARQYVVH
kcat/Km [7]: 290000 M⁻¹ s⁻¹
kcat/Km [8]: 300000 M⁻¹ s⁻¹
kcat/Km [9]: 73000 M⁻¹ s⁻¹
kcat/Km [10]: 47000 M⁻¹ s⁻¹
kcat/Km [11]: 300000 M⁻¹ s⁻¹
kcat/Km [12]: 10000 M⁻¹ s⁻¹
kcat/Km [13]: 280000 M⁻¹ s⁻¹
kcat/Km [14]: 150000 M⁻¹ s⁻¹
kcat/Km [15]: 2.2e+06 M⁻¹ s⁻¹
Km [16]: 0.45 µM
kcat [16]: 0.13 s⁻¹
kcat [17]: < 0.01 s⁻¹
Km [18]: 4 µM
kcat [18]: 1.2 s⁻¹
Km [19]: 12 µM
kcat [19]: 0.88 s⁻¹
kcat [20]: < 0.01 s⁻¹
Km [21]: 0.64 µM
kcat [21]: 0.03 s⁻¹
Km [22]: 0.3 µM
kcat [22]: 1.1 s⁻¹
Km [23]: 0.3 µM
kcat [23]: 0.003 s⁻¹
Km [24]: 0.36 µM
kcat [24]: 0.1 s⁻¹
Km [25]: 8 µM
kcat [25]: 1.2 s⁻¹
Km [26]: 2 µM
kcat [26]: 4.3 s⁻¹

B2: Beta-lactamase bla(BEL1) (Pseudomonas aeruginosa), Q3SAW3 (protein)
chain: B1 chain with F155L
Km [27]: 250 µM
kcat [27]: 30 s⁻¹
kcat [28]: < 0.01 s⁻¹
Km [29]: 20 µM
kcat [29]: 3 s⁻¹
Km [30]: 40 µM
kcat [30]: 10 s⁻¹
kcat [31]: < 0.01 s⁻¹
Km [32]: > 700 µM
kcat [32]: > 1.5 s⁻¹
Km [33]: 15 µM
kcat [33]: 2 s⁻¹
Km [34]: 150 µM
kcat [34]: 1 s⁻¹
Km [35]: 100 µM
kcat [35]: 10 s⁻¹
Km [36]: 130 µM
kcat [36]: 30 s⁻¹
Km [37]: 280 µM
kcat [37]: 150 s⁻¹
kcat/Km [38]: 250000 M⁻¹ s⁻¹
kcat/Km [39]: 150000 M⁻¹ s⁻¹
kcat/Km [40]: 250000 M⁻¹ s⁻¹
kcat/Km [41]: 130000 M⁻¹ s⁻¹
kcat/Km [42]: 7000 M⁻¹ s⁻¹
kcat/Km [43]: 100000 M⁻¹ s⁻¹
kcat/Km [44]: 230000 M⁻¹ s⁻¹
kcat/Km [45]: 540000 M⁻¹ s⁻¹
